Reference: the RNAGym collection of RNA variant scans (doi:10.1073/pnas.2313332121)
Fewer inactive variants are shown than the library holds.

B1: TPR 5TU (parent)
chain: GGAUCUUCUCGAUCUAACAAAAAAGACAAAUCUGCCACAAAGCUUGAGAGCAUCUUCGGAUGCAGAGGCGGCAGCCUUCGGUGGCGCGAUAGCGCCAACGUUCUCAACUAUGACACGCAAAACGCGUGCUCCGUUGAAUGGAGUUUAUCAUG

Variants of: B1
Assay: polymerase ribozyme fitness, log enrichment relative to wild type (log ratio); higher = more active; in vitro selection for triplet polymerase activity
Summary of the method: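 PCR was used to build mutant libraries for each subunit of a heterodimeric triplet polymerase ribozyme, which were then transcribed. A single in vitro selection round, in triplicate, used a frozen incubation at −7 °C and recovered extended constructs by gel excision, streptavidin beads and RT-PCR. Fitness is the logarithm of genotype enrichment relative to wild-type enrichment, averaged over replicates with inverse-variance weights. The logarithm is base 2, and after Illumina sequencing only genotypes with ≥10 input reads and ≥1 read per output were kept.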

Variant	polymerase ribozyme fitness (log ratio)
C69U G83A	-3.04
U7A U45G A49C G50C C87U C96A	≤ -4.2
U55A U82G C96G C116U G140C	-4.17
U31C U44A G94C C96G U102G U151C	≤ -4.2
G25U C35U G86C C103U G133U	≤ -4.2
U61A G65A G67C G84U C96G G141U	≤ -4.2
A52G C57A G58A G83U C95U	-0.758
G42C A49C	≤ -4.2
C79A G84A A120U U127C U144C	≤ -4.2
A22C A26G A30U U45G G74C C103G G140U	≤ -4.2
U7A A26U C32G A49C G50A G83U	≤ -4.2
C5G C54G U56G C95U C125U C129A G133U	≤ -4.2
A23C U56A G86U A115G	≤ -4.2
A39G G83A G117U A120C G152U	-4.11
G42C A60G A113U G140U	-3.85
C95U C118U	-1.09
U55A C69G U146A	-3.62
A23C G48C G68C C99U U101C A122U U144G	≤ -4.2
G46U A60U G92C U139G	≤ -4.2
A16U A24U U33A C35U C87G	-4.15
C79A C87G A113G	≤ -4.2

Variant	polymerase ribozyme fitness (log ratio)
A20U U33C G71C G92U C96G A119U C125A	≤ -4.2
A49G U53A U144G	-0.883
A73G A91U	≤ -4.2
C14U A30U U53G G58U G65C G74A	≤ -4.2
A21C A52G C103G	-1.21
C38G	-0.296
C5G C32G C72U A73G A91G A119U G141A	≤ -4.2
C38A U61A C96G	-2.38
C27A C87U	-3.91
C27U A49C G88A U111G	≤ -4.2
C14U G59U	-1.23
C14G A107G G136U	≤ -4.2
A24C G42A A52G U55A C76U C123G G126A	≤ -4.2
C116U G141U	1.29
G50A C96G C129U	-3.02
U53A G70A G88A C96U C123U	≤ -4.2
U6C U44A U56A U61C A91G U130A C132U A150C U151G	≤ -4.2
C57G C76U G88A G92U	-3.96
U53A C87A A89U G141C	≤ -4.2
A26U C43G C85G C132U	≤ -4.2
A28U C54A G92U C118U G124U C131A A137U	≤ -4.2

Variant	polymerase ribozyme fitness (log ratio)
U9A A39U U61A C76U C93A A120U G141A	≤ -4.2
C8G C87U	-3.36
A16U U61A C93U G140A G143U U148G	≤ -4.2
G58U G59U C96G C123A C149U	-3.08
U56A C93U U127C	-2.73
U4C G25U U61G G86U C93U G133C	≤ -4.2
G46C C76U U102C C116U A137C	≤ -4.2
A39C C54G G58C G117U G124U U134C	≤ -4.2
U44G A52G U53A C75A	≤ -4.2
U15G A39U C43U G50C G94A	≤ -4.2
C38U G62C G94U	-3.3
A3G U82G C95U U102G	-3.62
G81U G84U	-2.19
U104C C116G	0.144
C79A C87G	≤ -4.2
C5U U56A C57A C85G	-0.724
A73G C85A G124A	-1.16
C72G G83A G100A	≤ -4.2
U53C C57G U61A G124A G128U	-4.14
G83C	-0.934
G83A	-0.336

Variant	polymerase ribozyme fitness (log ratio)
G83U	-0.478
G42C U44A U90G G140U A147U	≤ -4.2
A3C U6G A49C G65A G71A G88C C93A U135C	≤ -4.2
U90C G126U	-3.66
A37C U55A	0.0873
A29C A49G C69G U77G C79U C116U U146A	≤ -4.2
A52G G71C C95A C131A U139A	≤ -4.2
C57U G117C A122G	0.204
C5G U15A U45G U82C G92A A150U	≤ -4.2
A26U A52G C85U	-1.69
A3C C5U G62C	-1.89
A12U C43U C63U U90C C105G G140A	≤ -4.2
C35U C76A C95U U148A	≤ -4.2
A39C G80U C114U	≤ -4.2
A73U C85U C103G C105G C116U A142G	≤ -4.2
A49U C54U G88C U90A C114U A142C	≤ -4.2
C36U G42C U53A G59A U78A C87U	≤ -4.2
G140U G141C	-3.07
C32U U56A G58A G68A C76A C93A	≤ -4.2
G92A A98C G133C A142U	≤ -4.2
G59C C85G	-1.64
